# Experimental data taken from the Immune Epitope Database (IEDB).
# Experiments:
# [1] = molecular target: HLA-A*01:01; assay: IEDB peptide-MHC binding, purified MHC/competitive/fluorescence; filed as Kd, often an IC50 or EC50 that approximates it; ≥ and ≤ were set here for values at or beyond the usual limits of such assays
# [2] = molecular target: HLA-A*02:01; assay: as above
# [3] = molecular target: HLA-A*03:01; assay: as above; conditions: source organism: Acinetobacter baumannii
# [4] = molecular target: HLA-A*11:01; assay: as above; conditions: source organism: Acinetobacter baumannii
# [5] = molecular target: HLA-A*24:02; assay: as above
# [6] = molecular target: HLA-A*26:01; assay: as above; conditions: source organism: Acinetobacter baumannii
# [7] = molecular target: HLA-A*31:01; assay: as above; conditions: source organism: Acinetobacter baumannii
# [8] = molecular target: HLA-A*69:01; assay: as above; conditions: source organism: Acinetobacter baumannii
# [9] = molecular target: HLA-B*07:02; assay: as above; conditions: source organism: Acinetobacter baumannii
# [10] = molecular target: HLA-B*08:01; assay: as above; conditions: source organism: Acinetobacter baumannii
# [11] = molecular target: HLA-B*15:01; assay: as above; conditions: source organism: Acinetobacter baumannii
# [12] = molecular target: HLA-B*18:01; assay: as above; conditions: source organism: Acinetobacter baumannii
# [13] = molecular target: HLA-B*27:05; assay: as above; conditions: source organism: Acinetobacter baumannii
# [14] = molecular target: HLA-B*35:01; assay: as above; conditions: source organism: Acinetobacter baumannii
# [15] = molecular target: HLA-B*40:01; assay: as above; conditions: source organism: Acinetobacter baumannii
# [16] = molecular target: HLA-B*58:01; assay: as above; conditions: source organism: Acinetobacter baumannii
# [17] = molecular target: HLA-C*07:02; assay: IEDB peptide-MHC binding, purified MHC/direct/fluorescence; filed as Kd, often an IC50 or EC50 that approximates it; ≥ and ≤ were set here for values at or beyond the usual limits of such assays; conditions: source organism: Homo sapiens
# [18] = molecular target: HLA-A*29:02; assay: IEDB peptide-MHC binding, purified MHC/competitive/fluorescence; filed as Kd, often an IC50 or EC50 that approximates it; ≥ and ≤ were set here for values at or beyond the usual limits of such assays; conditions: source organism: Homo sapiens
# [19] = molecular target: HLA-A*80:01; assay: as above; conditions: source organism: Homo sapiens
# [20] = source organism: Acinetobacter baumannii
# [21] = source organism: Salmonella enterica subsp. enterica serovar Typhi
sequence,measurement,setting,value
SIYAGNTPK,Kd,[1]; [20],≥ 20 µM
same,Kd,[2]; [20],≥ 20 µM
same,Kd,[3],0.0385 µM
same,Kd,[4],0.015 µM
same,Kd,[5]; [20],≥ 20 µM
same,Kd,[6],≥ 20 µM
same,Kd,[7],0.0344 µM
same,Kd,[8],≥ 20 µM
same,Kd,[9],≥ 20 µM
same,Kd,[10],≥ 20 µM
same,Kd,[11],≥ 20 µM
same,Kd,[12],≥ 20 µM
same,Kd,[13],≥ 20 µM
same,Kd,[14],≥ 20 µM
same,Kd,[15],≥ 20 µM
same,Kd,[16],≥ 20 µM
TLMFGFFGF,Kd,[2]; [21],4 µM
same,Kd,[5]; [21],≥ 5 µM
YYSNKAYQY,Kd,[17],0.15 µM
same,Kd,[1]; source organism: Homo sapiens,≥ 20 µM
same,Kd,[18],≤ 0.0001 µM
same,Kd,[19],0.373 µM
